The values that follow come from the domain aggregation screens of Martell et al. (2025).

This data set is described as follows: soluble fraction after stress (log2 fold change); higher = more stays soluble; pooled small domains, quantitative proteomics. The note with it: stress: 50 degC. In a few lines:
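Each library was heated to 50°C as a stress step. The libraries, made up of small protein domains, were pooled and analysed at high throughput by quantitative proteomics. The reported value is the base-two logarithm of the fold change in each protein's soluble amount after stress, taken as a measure of aggregation propensity. The higher the value, the more protein stays in solution.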

Turning to “HMIQLTDAEFNELVTYIKKNYGINLIKKRLLIEARMYSVLAKHGFTSFTEYINLIKRDPAELNTMLNKLTT”, the “soluble fraction (log2)” value was -1.72.
To “HMNEQKVSSLLTPRQLAFIDEYLIDFNGAQAAIRAGYSHKTAGPQAARLLVNVNISRMIAERIEARNK” belongs -1.7.
With “HMEELPIIVAQRFLNIFRQLHIFSDERREAFNKMLLELPPEVKSIFQSLPGGTPLQEYMEDLEQKSK” the figure was -0.055; with “HMDPPYKDKNLHELLLKINNLNILKKDSVIILHRHKKQKEIFPSNFKIIEQKQYGISKIIFLTVL”, 0.00254; with “HMGNAQELQKKLEGLKGISGIEKLESDHYAEKYLVRITQPVDHKNPAAGTFTQRVIVAHVGFDRPTILVT”, 0.511.
To “HMQLTQEAIENLFKITTAKKFREELEKLVVTDSEKKAFAYFTVYHPKLKELPFAILKSVENYTGISI” belongs -0.871; to “HMTKLLSALQADKFAKKLANDTNFGSNFARMGESAMDFTNRLVEELQRDEGKVANYMPYLTKLGF”, 0.312.
As to “HMNYSIVNVGFNNKSLFLRSAPGYSASRLLLPFATERAFVRETLSNGWSRVIVRGTEGYLPTEYVAD”, the “soluble fraction (log2)” value stood at 0.179.
Regarding “HMGGLIDQSIQEIIDKYSVPGKKIQKAQRLKIVAEMHTKGIFKMRGGVQQAAQALGVTRYTVYNDLEVMN”, the “soluble fraction (log2)” value was -2.89.
To “HMGVSAGQVRGLIRNLIAGEDKSKPLSDLALERELEKREIRISRRTVAKYRAELGIPNSDQRRYLP” belongs -0.642; to “HMQEEMIRGDIKLNTVMQTVHLAVGTETERNWQPVETTAKEFELLKLLMENPGVTLKKEYLFHMLI”, -0.102.
With “HMITERVPVPDLTGMPLMEAIKTLNSSKLQYQVVGSVIEGDENRIIDQTPKPDIMVSEKSIVLLYLETYRG” the figure was -0.509; with “HMTQTAVFSKGEQEYYFPLSKVLFFETDGNTINVHTADDIYETRYRLYELEEMLPGSFMRISKSAVVNTNR”, -0.0904; with “HMNRLEFLQGLKAELEGRVPHSIIQENLRYYDSYISDEAAKGQSEEDVVESLGGPRIIARTIVDAA”, 0.134.
With “HMSKKMTNEEILNFLKKVLIKHGKISGFIIDEDDNGPSSSVVASRFGGLLNAYKLINYTPER” the figure was -0.506; with “HMGAVVSPMPGVILDIKVKEGDSVSEGQTVIILEAMKMENEIVSEFTGTVSAIRVKKGDTVDTDAVLVEI”, -0.393.
“HMSSLKKISIDELSPGMYVHSIVEQKGSVKIKSQGKVLKQAVVDALRKRGVKTLLIDLSKQFNPETGEP”: the “soluble fraction (log2)” value was -0.0124.
With “HMITSELALVKLVVKGANRVEALRVAETFRARALDVTLSSFVFELTGKPSKLDAFIGLMRSLGDTEILKR” the figure was -4.06; with “HMPLITDIKIQVKNTEKVSLFVDGKYSFSLTISQLAEHKILKTNQEISAKQVAEFKKLSNLTNLYIRIVG”, -0.149; with “HMISKRFQVDEENSNNRVDIFLANNLDSISRGIVQQLILDGKVLVNGETVKRNHLLKTNDEVDISFEI”, 0.298.
“HMSSFSESFHKALNNLDDKHKSVFSLRHFEGFSMKEIAETLNINEGTVKSRLFYATKTLAGALKEF”: the “soluble fraction (log2)” value was -2.74.
To “HMDRGDVTREALIKAAIEIFGRDGFHAASTRAIAERAGANQALIGYHFRGKLGLYHATFEYIIGKI” belongs -0.315.
With “HMKDLQHLVGEKGTTVTPLRPSGIALIKGSRYDVVSEGSFIQQGVAVEVIKVEGRRVVVSPLQED” the figure was -0.16; with “HMLDVFSAEQVADVLSVSKRNLETWANNGKLIPDFIHGEVALYSKKQLEQFEQFQRFFNSSWDAERLIQP”, -0.947; with “HMEYRVRDKMTDILELLTEHRGRIALRDAFPTGTREELLAAFLALLELTKMQTVIVYQDRLYDDIQIVMK”, -0.204.
To “HMIFEETVFKDIAFGPKNMGLSEAEIKRRVYETAENIGLSQELMERSPFELSGGQKRRVAIAGVMAMEP” belongs 0.192; to “HMYVTGSAIRRLREKRKLTQAQLAAALSVSDKTVSKWETARGLPDITLLEPLARALQVSVPELLSGEEV”, -0.255.
